The target in series [1] is Sth7710 Type I-E Cascade plus Cas3 nickase (Streptococcus thermophilus DGCC7710) (UniProt F2XG53). The experiment in a line: cell_activity.
Series [2] relates to Sth7710 Type I-E Cascade, Cas5, Cas6 and Cse1 each AtCBF1-linked (Streptococcus thermophilus DGCC7710). The series is described as follows: cell_activity. The conditions noted are these: PAM AA 5'; value for R1 guides pooled (A2+, A4+, A1-); SE 18.9; no-guide control 0.

“GUGAUCCNNNNNNNNNNNNNNNNNNNNNNNNNNNNNNNNNGUUUUUCCCGCACACGCGGGGCACUACUGCUGUUCAUGUACAGUUUAAGCACUA / CACTACTGCTGTTCATGTACAGTTTAAGCACTA / TAGTGCTTAAACTGTACATGAACAGCAGTAGTG [R1 A3- guide RNA ; R1 A3- protospacer]”: in series [1] (paired nicking A4+/A3-, PAM not printed for A3-), the activity (% mutant reads) came out at 0.03. As to “GUGAUCCNNNNNNNNNNNNNNNNNNNNNNNNNNNNNNNNNGUUUUUCCCGCACACGCGGGGCAGCAGUAGUGUUACAGAAGCUAAACUCAACCA / CAGCAGTAGTGTTACAGAAGCTAAACTCAACCA / TGGTTGAGTTTAGCTTCTGTAACACTACTGCTG [R1 A4+ guide RNA ; R1 A4+ protospacer]”, in series [1] (paired nicking A4+/A1-, PAM AA 5'), the activity (% mutant reads) came to 0.06. The sequence further returned an activity (anthocyanin positive cells) in series [2] of 153. In the case of “GUGAUCCNNNNNNNNNNNNNNNNNNNNNNNNNNNNNNNNNGUUUUUCCCGCACACGCGGGGGAGGGUCUACUUCCAUCACCGUCUUGCUCGGUC / GAGGGTCTACTTCCATCACCGTCTTGCTCGGTC / GACCGAGCAAGACGGTGATGGAAGTAGACCCTC [R1 A2+ guide RNA ; R1 A2+ protospacer]”, the activity (% mutant reads) in series [1] (paired nicking A2+/A3-, A2+/A1- pair gave 0.02%, PAM AA 5') was 0.06. For the same sequence, in series [2], the activity (anthocyanin positive cells) turned out to be 153. Turning to “GUGAUCCNNNNNNNNNNNNNNNNNNNNNNNNNNNNNNNNNGUUUUUCCCGCACACGCGGGGUUUAUGGACAGAGCUCCAAGUGACCGAGCAAGA / TTTATGGACAGAGCTCCAAGTGACCGAGCAAGA / TCTTGCTCGGTCACTTGGAGCTCTGTCCATAAA [R1 A1- guide RNA ; R1 A1- protospacer]”, in series [2], the activity (anthocyanin positive cells) was 153.
